Tests used:
[1] = biological target: recombinant 6xHis tagged human CLDN18.2 (human); test: SPR (Biacore); same values as Table 30, where the antibody is hu22E12.H1L2
[2] = biological target: recombinant 6xHis tagged human CLDN18.2 (human); test: SPR (Biacore T200), His tagged CLDN18.2 amine-coupled on CM5, antibody as analyte, 1:1 fit
[3] = biological target: biotin labeled hCLDN18.2 (human); test: competitive ELISA: excess antibody plus biotin labeled hCLDN18.2 on coated IMAB362; competitor IMAB362
[4] = biological target: human CLDN18.2 as used in the Octet assay (human); test: Octet (BLI); format not described
[5] = biological target: mouse CLDN18.2 (mCLDN18.2), expressed on HEK293 cells (mouse) (UniProt P56857); test: FACS, HEK293/mCLDN18.2 cells
[6] = biological target: recombinant 6xHis tagged human CLDN18.2 (human); test: SPR (Biacore); same values as Table 30, where the antibody is hu35B4.H1L2
[7] = biological target: recombinant 6xHis tagged human CLDN18.2 (human); test: SPR (Biacore); same values as Table 30, where the antibody is ch97A9
[8] = biological target: recombinant 6xHis tagged human CLDN18.2 (human); test: SPR (Biacore); same values as Table 30, where the antibody is ch99H8

| Binder | Kd [2] [nM] | koff [2] [s⁻¹] | kon [2] [M⁻¹ s⁻¹] | Compete with IMAB362 (%) [3] [%] | Kd [4] [nM] | EC50 [5] [nM] | further results |
| --- | --- | --- | --- | --- | --- | --- | --- |
| 35B4 (antibody, V domains shown) VH: EAKLVESGGDFMQPGGSLKLSCAASGFTLSSYALSWVRQTPEKRLEWVAYISNLGGSTFYPDTVKGRFTISRDNARNTLFLQMSSLQSEDTAIYYCATHLYNYDAFASWGQGTLVTVSA VL: QIVLSQSPAILSASPGEKVTMTCRASSSVNYIHWYQQKPGSSPKAWIYATSNLASGVPTRFSGSGSGTSYSLTIDRVEAEDAATYYCQQWNSNPLTFGAGTKLELK |  |  |  | 81 | 3.3 | 1.9 |  |
| 33G12 (antibody, V domains shown) VH: EVKLVESGGGLVQPGGSLKLSCAASGFTFSRYAMSWVRQTPEKRLEWVAYISIGGTTYYPDTIKGRFTISRDNAKNTLYLQMSSLKSEDTAMYYCTRHYYGHDVMDYWGQGTSVTVSS VL: QIVLSQSPTILSASPGEKVTMTCRATSSVSYMHWFQQKPGSSPKPWIYATSNLASGVPARFSGSGSGTSYSLTISRVEAEDAATYYCQQWSRNPLTFGAGTKLELK |  |  |  | 87 | 6.2 | 1.7 |  |
| 97A9 (antibody, V domains shown) VH: QVQLQQSGPELVKPGASMKLSCKASGYSFTRNDINWVKQRPGQGLEWIGLSYPRDGTTQYNGKFKGKATLTVDTSSSTAYMELRSLTSEDSAVYFCARGYYGNSFAYWGQGTLVTVSA VL: DIVMTQSPSSLTVTAGEKVTMSCKSSQSLLNSGNQKNYLTWYQQKPGQPPKLLIYWASTRESGVPDRFTGSGSGTYFTLTISSVQAEDLAVYFCQNDYYFPYTFGGGTKLEIK |  |  |  | 92 | 2.2 | 1.4 |  |
| 22E12 (antibody, V domains shown) VH: QVQLQQPGTELVKTGTSVKLSCKASGYTFTNWVHWVIQRPGQGLEWIGEINPTNGRSNYNEKFKKKATLTLDRSSTTAYMQLSSLTSEDSAVYFCAGIYYGNSFAHWGQGTLVTVSA VL: DIVMTQSPSSLTVTAGEKVTLSCKSSQSLLNSGNQKNYLTWYQQKPGQPPKLLIYWSSTRESGVPDRFTGSGSGTDFTLTISSVQAEDLAVYHCQNNYYYPLTFGAGTKLELK |  |  |  | 49 | < 0.001 | 0.9 |  |
| 99H8 (antibody, V domains shown) VH: QVQLQQSGPELVKPGASVKLSCKASGYSFTNFDINWVKQRPGQGLQWIGRLYPRDGTTTYNEKFKGKASLTVDTSSTTSYMDLHSLTSEDSAVYFCVRGNYGNSFAYWGQGTLVTVSA VL: DIVMTQSPSSLTVTAREKVIMNCKSSQSLFNSGNQKNYLTWYQQKPGQSPKLLIYWASTRQSGVPDRFTGSGSGTDFTLTISTVQAEDLAVYFCQNGFSFPYTFGGGTKLEMN |  |  |  |  | 2 | 3.5 |  |

Now from value to binder, other results behind:

| Kd [2] [nM] | koff [2] [s⁻¹] | kon [2] [M⁻¹ s⁻¹] | Compete with IMAB362 (%) [3] [%] | Kd [4] [nM] | EC50 [5] [nM] | Binder | further results |
| --- | --- | --- | --- | --- | --- | --- | --- |
| 0.26 | 0.000202 | 778000 |  |  |  | hu22E12.H1L2 (antibody, V domains shown) VH: QVQLVQSGAEVKKPGASVKVSCKASGYTFTNWVHWVRQAPGQGLEWMGEINPTNARSNYNEKFKKRVTMTRDTSTSTVYMELSSLRSEDTAVYYCARIYYGNSFAHWGQGTLVTVSS VL: DIVMTQSPDSLAVSLGERATINCKSSQSLLNAGNQKNYLTWYQQKPGQPPKLLIYWSSTRESGVPDRFSGSGSGTDFTLTISSLQAEDVAVYHCQNNYYYPLTFGGGTKLEIK | Kd [1]: 0.26 nM |
| 1.57 | 0.00035 | 222000 |  |  |  | hu35B4.H1L2 (antibody, V domains shown) VH: EVQLLESGGGLVQPGGSLRLSCAASGFTLSSYALSWVRQAPGKGLEWVSYISNLGGSTFYPDTVKGRFTISRDNSKNTLYLQMNSLRAEDTAVYYCAKHLYNYDAFASWGQGTLVTVSS VL: DIQLTQSPSFLSASVGDRVTITCRASSSVNYIHWYQQKPGKAPKALIYATSNLASGVPSRFSGSGSGTEYTLTISSLQPEDFATYYCQQWNSNPLTFGQGTKLEIK | Kd [6]: 1.57 nM |
| 1.15 | 0.000489 | 425000 |  |  |  | ch97A9 (antibody, V domains shown) VH: QVQLQQSGPELVKPGASMKLSCKASGYSFTRNDINWVKQRPGQGLEWIGLSYPRDGTTQYNGKFKGKATLTVDTSSSTAYMELRSLTSEDSAVYFCARGYYGNSFAYWGQGTLVTVSA VL: DIVMTQSPSSLTVTAGEKVTMSCKSSQSLLNSGNQKNYLTWYQQKPGQPPKLLIYWASTRESGVPDRFTGSGSGTYFTLTISSVQAEDLAVYFCQNDYYFPYTFGGGTKLEIK | Kd [7]: 1.15 nM |
| 1.75 | 0.000355 | 203000 |  |  |  | ch99H8 (antibody, V domains shown) VH: QVQLQQSGPELVKPGASVKLSCKASGYSFTNFDINWVKQRPGQGLQWIGRLYPRDGTTTYNEKFKGKASLTVDTSSTTSYMDLHSLTSEDSAVYFCVRGNYGNSFAYWGQGTLVTVSA VL: DIVMTQSPSSLTVTAREKVIMNCKSSQSLFNSGNQKNYLTWYQQKPGQSPKLLIYWASTRQSGVPDRFTGSGSGTDFTLTISTVQAEDLAVYFCQNGFSFPYTFGGGTKLEMN | Kd [8]: 1.75 nM |
